Reference: article PMC6161613

How the values were obtained:
Dansyl-calmodulin (rat) [1] = target: Dansyl-calmodulin (rat) (UniProt P0DP29); assay: other fluorescence titration; D-CaM (12.5 nM) fluorescence enhancement on adding increasing concentrations of GST-fusion protein; 3.9 μM free Ca2+; Hill fit; apparent binding affinity (EC50)
Dansyl-calmodulin (rat) [2] = target: Dansyl-calmodulin (rat) (UniProt P0DP29); assay: other fluorescence titration; D-CaM (12.5 nM) fluorescence enhancement on adding increasing concentrations of GST-fusion protein; absence of Ca2+ (10 mM EGTA added); Hill fit; apparent binding affinity (EC50)
[3] = target: GST-Kv7.2 helices A-B fusion protein (G310-L548) K526N (human); assay: pull-down; purified GST fusion proteins immobilised on GSH-Sepharose 4B beads; CaM (10 μg) added, 45 min, room temperature; 25 mM Hepes, 120 mM KCl, 5 mM NaCl, pH 7.5 with 100 μM CaCl2; anti-CaM Western blot, band intensities quantified (n = 3)

Row | EC50 (Dansyl-calmodulin (rat) [1]) [nM] | EC50 (Dansyl-calmodulin (rat) [2]) [nM] | percent lower CaM signal intensity than WT [3] [%] | Substance
1 | 55.9 | 37.3 | – | GST-Kv7.2 helices A-B fusion protein (G310-L548) K526N (domain or fragment)
2 | 30.1 | 12.6 | – | GST-Kv7.2 helices A-B fusion protein (G310-L548) R333Q (domain or fragment)
3 | – | – | 42 | Recombinant rat brain calmodulin (from UniProt P0DP29 1-149) (natural protein)
